Numbering of substitutions follows the chain as printed. Names and notes keep the numbering of the source.

From article PMC6629437 (Cell, 2019) come the findings set out here.

Assay [1] deals with H7 HA of A/Netherlands/219/2003, soluble trimer (Influenza A virus …, UniProt Q6VMK1, strain). The experiment in a line: ELISA. In general terms: In an ELISA, binding on a coated surface is turned into a signal by an enzyme label.
The target in assay [2] is H5 HA of A/Indonesia/5/2005 (Influenza A virus A/Indonesia/5/2005 …, UniProt A5A5L7, strain). The experiment in a line: ELISA.

B1: rFluA-20 IgG (recombinant FluA-20 IgG) (antibody, V domains shown)
VH: QVQLEESGPGLVKPSETLSLTCSVSGVSVTSDIYYWTWIRQPPGKGLEWIGYIFYNGDTNYNPSLKSRVTMSIDTSKNEFSLRLTSVTAADTAVYFCARGTEDLGYCSSGSCPNHWGQGTLVTVSS
VL: DIVMTQSPSSLSASIGDRVTITCRPSQNIRSFLNWFQHKPGKAPKLLIYAASNLQSGVPSRFSGSGSGTEFTLTIRSLQPEDFATYYCQQSYNTPPTFGQGTKVEIK
For the molecule B1, in assay [1], the binding result is “binds”.

B2: rFluA-20 IgG Y49A (L) (antibody, V domains shown)
VH: B1 VH
VL: B1 VL with Y49A
With B2, in assay [2], the binding result is reported as “no binding (tested: 10 μg/mL)”.

B3: rFluA-20 IgG D98A (H) (antibody, V domains shown)
VH: B1 VH with D103A
VL: B1 VL
In the case of B3, in assay [2], the binding result is “no binding (tested: 10 μg/mL)”.
